T1: PUF4 RNA-binding domain (Saccharomyces cerevisiae, UniProt P25339 537-888)
T1 sequence: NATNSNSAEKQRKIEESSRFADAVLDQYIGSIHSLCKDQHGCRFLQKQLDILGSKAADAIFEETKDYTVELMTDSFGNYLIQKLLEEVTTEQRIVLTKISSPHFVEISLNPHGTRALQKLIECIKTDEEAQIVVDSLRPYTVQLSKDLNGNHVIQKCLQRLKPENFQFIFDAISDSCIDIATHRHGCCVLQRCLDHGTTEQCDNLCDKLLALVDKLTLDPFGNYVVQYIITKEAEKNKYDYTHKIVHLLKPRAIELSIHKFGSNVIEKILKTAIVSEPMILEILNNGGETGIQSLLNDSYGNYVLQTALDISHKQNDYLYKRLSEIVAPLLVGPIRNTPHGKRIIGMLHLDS


Each binder was assayed against T1, PUF4 RNA-binding domain (assay: Mg; RNA-MaP; 20 mM Na-HEPES pH 7.4, 30 mM KOAc, 0.75 mM MgCl2, 0.1% Tween-20, 5% glycerol, 0.1 mg/mL BSA, 2 mM DTT; 25 C; 0.0125-409.6 nM protein). Conditions: tags: N-His6-TEV cleaved; C-SNAP kept, Cy3B-labelled; label: tethered on chip by stalled RNA polymerase.

Row | Binder | Kd
1 | UCUCUUUGUAUGUGUCUCUU (ssRNA) [Ic_S1_P3E.1_K3.1_C3.1_H3.1_A3.1_[A6G]_F3.1_[A8G]_T3.1] | 472 nM
2 | UCUCUUUGUAACCCCAUCUCUU (ssRNA) [Ic_S1_P5E.1_K5.1_C5.1_H5.1_A5.1_[T5A]_[T6C]_[A7C]_F5.1_[T8C]_[T9C]_T5.1] | 1280 nM
3 | UCUCUUUGUAACUCCAUCUCUU (ssRNA) [Ic_S1_P5E.1_K5.1_C5.1_H5.1_A5.1_[T5A]_[T6C]_[A7T]_F5.1_[T8C]_[T9C]_T5.1] | 616 nM
4 | UCUCUUUGUAUCACAUUCUCUU (ssRNA) [Ic_S1_P5E.1_K5.1_C5.1_H5.1_A5.1_[T6C]_F5.1_[T8C]_[T9A]_[A10T]_T5.1] | 106 nM
5 | UCUCUUUGUACCUAACUCUCUU (ssRNA) [Ic_S1_P5E.1_K5.1_C5.1_H5.1_A5.1_[T5C]_[T6C]_[A7T]_F5.1_[T8A]_[T9A]_[A10C]_T5.1] | 65.6 nM
6 | UCUCUUUGUAUCUUAGUCUCUU (ssRNA) [Ic_S1_P5E.1_K5.1_C5.1_H5.1_A5.1_[T6C]_[A7T]_F5.1_[T9A]_[A10G]_T5.1] | 3.71 nM
7 | UCUCUUUGUAAUCACCUCUCUU (ssRNA) [Ic_S1_P5E.1_K5.1_C5.1_H5.1_A5.1_[T5A]_[A7C]_F5.1_[T8A]_[T9C]_[A10C]_T5.1] | 1200 nM
8 | UCUCUUUGUAUUUCCAUCUCUU (ssRNA) [Ic_S1_P5E.1_K5.1_C5.1_H5.1_A5.1_[A7T]_F5.1_[T8C]_[T9C]_T5.1] | 363 nM
9 | UCUCUUUGUACAUUAAUCUCUU (ssRNA) [Ic_S1_P5E.1_K5.1_C5.1_H5.1_A5.1_[T5C]_[T6A]_[A7T]_F5.1_[T9A]_T5.1] | 0.904 nM
10 | UCUCUUUGUACUAAAAUCUCUU (ssRNA) [Ic_S1_P5E.1_K5.1_C5.1_H5.1_A5.1_[T5C]_F5.1_[T8A]_[T9A]_T5.1] | 58.8 nM
11 | UCUCUUUGUAUAAAUUCUCUU (ssRNA) [Ic_S1_P4E.1_K4.1_C4.1_H4.1_A4.1_[T7A]_F4.1_[T8A]_[A9T]_T4.1] | 67.2 nM
12 | UCUCUUUGUAAUCACGUCUCUU (ssRNA) [Ic_S1_P5E.1_K5.1_C5.1_H5.1_A5.1_[T5A]_[A7C]_F5.1_[T8A]_[T9C]_[A10G]_T5.1] | 1250 nM
13 | UCUCUUUGUACCCAACUCUCUU (ssRNA) [Ic_S1_P5E.1_K5.1_C5.1_H5.1_A5.1_[T5C]_[T6C]_[A7C]_F5.1_[T8A]_[T9A]_[A10C]_T5.1] | 836 nM
14 | UCUCUUUGUAACACGGUCUCUU (ssRNA) [Ic_S1_P5E.1_K5.1_C5.1_H5.1_A5.1_[T5A]_[T6C]_F5.1_[T8C]_[T9G]_[A10G]_T5.1] | 2070 nM
15 | UCUCUUUGUAUAUAGUUCUCUU (ssRNA) [Ic_S1_P5E.1_K5.1_C5.1_H5.1_A5.1_[T6A]_[A7T]_F5.1_[T8A]_[T9G]_[A10T]_T5.1] | 4.66 nM
16 | UCUCUUUGUACGAUCAUCUCUU (ssRNA) [Ic_S1_P5E.1_K5.1_C5.1_H5.1_A5.1_[T5C]_[T6G]_F5.1_[T9C]_T5.1] | 88.9 nM
17 | UCUCUUUGUAUCUGUCUCUU (ssRNA) [Ib_S1_P3E.1_K3.1_C3.1_H3.1_A3.1_[A6C]_F3.1_[A8G]_T3.1] | 81.8 nM
18 | UCUCUUUGUAGUUUCCUCUCUU (ssRNA) [Ic_S1_P5E.1_K5.1_C5.1_H5.1_A5.1_[T5G]_[A7T]_F5.1_[T9C]_[A10C]_T5.1] | 479 nM
19 | UCUCUUUGUAUAACUUCUCUU (ssRNA) [Ic_S1_P4E.1_K4.1_C4.1_H4.1_A4.1_[T7A]_F4.1_[T8C]_[A9T]_T4.1] | 44.2 nM
20 | UCUCUUUGUAGCAUUGUCUCUU (ssRNA) [Ic_S1_P5E.1_K5.1_C5.1_H5.1_A5.1_[T5G]_[T6C]_F5.1_[A10G]_T5.1] | 771 nM

Row | Binder | Kd
21 | UCUCUUUGUACCUUUUUCUCUU (ssRNA) [Ic_S1_P5E.1_K5.1_C5.1_H5.1_A5.1_[T5C]_[T6C]_[A7T]_F5.1_[A10T]_T5.1] | 26.7 nM
22 | UCUCUUUGUAAUGCAUUCUCUU (ssRNA) [Ic_S1_P5E.1_K5.1_C5.1_H5.1_A5.1_[T5A]_[A7G]_F5.1_[T8C]_[T9A]_[A10T]_T5.1] | 910 nM
23 | UCUCUUUGUAUAUCGCUCUCUU (ssRNA) [Ic_S1_P5E.1_K5.1_C5.1_H5.1_A5.1_[T6A]_[A7T]_F5.1_[T8C]_[T9G]_[A10C]_T5.1] | 27.4 nM
24 | UCUCUUUGUACUGUCAUCUCUU (ssRNA) [Ic_S1_P5E.1_K5.1_C5.1_H5.1_A5.1_[T5C]_[A7G]_F5.1_[T9C]_T5.1] | 116 nM
25 | UCUCUUUGUAUAAGCCUCUCUU (ssRNA) [Ic_S1_P5E.1_K5.1_C5.1_H5.1_A5.1_[T6A]_F5.1_[T8G]_[T9C]_[A10C]_T5.1] | 794 nM
26 | UCUCUUUGUAUUCCCUUCUCUU (ssRNA) [Ic_S1_P5E.1_K5.1_C5.1_H5.1_A5.1_[A7C]_F5.1_[T8C]_[T9C]_[A10T]_T5.1] | 653 nM
27 | UCUCUUUGUAUCAGUGUCUCUU (ssRNA) [Ic_S1_P5E.1_K5.1_C5.1_H5.1_A5.1_[T6C]_F5.1_[T8G]_[A10G]_T5.1] | 441 nM
28 | UCUCUUUGUAUCCCGGUCUCUU (ssRNA) [Ic_S1_P5E.1_K5.1_C5.1_H5.1_A5.1_[T6C]_[A7C]_F5.1_[T8C]_[T9G]_[A10G]_T5.1] | > 2300 nM
29 | UCUCUUUGUAAUACUCUCUCUU (ssRNA) [Ic_S1_P5E.1_K5.1_C5.1_H5.1_A5.1_[T5A]_F5.1_[T8C]_[A10C]_T5.1] | 642 nM
30 | UCUCUUUGUACGUCUUUCUCUU (ssRNA) [Ic_S1_P5E.1_K5.1_C5.1_H5.1_A5.1_[T5C]_[T6G]_[A7T]_F5.1_[T8C]_[A10T]_T5.1] | 425 nM
31 | UCUCUUUGUACAGCCAUCUCUU (ssRNA) [Ic_S1_P5E.1_K5.1_C5.1_H5.1_A5.1_[T5C]_[T6A]_[A7G]_F5.1_[T8C]_[T9C]_T5.1] | 316 nM
32 | UCUCUUUGUAAAUUUCUCUU (ssRNA) [Ic_S1_P3E.1_K3.1_C3.1_H3.1_A3.1_[T5A]_F3.1_[A8T]_T3.1] | 16.9 nM
33 | UCUCUUUGUAAAUAAUUCUCUU (ssRNA) [Ic_S1_P5E.1_K5.1_C5.1_H5.1_A5.1_[T5A]_[T6A]_[A7T]_F5.1_[T8A]_[T9A]_[A10T]_T5.1] | 30.5 nM
34 | UCUCUUUGUAUGUCACUCUCUU (ssRNA) [Ic_S1_P5E.1_K5.1_C5.1_H5.1_A5.1_[T6G]_[A7T]_F5.1_[T8C]_[T9A]_[A10C]_T5.1] | 132 nM
35 | UCUCUUUGUACCAACCUCUCUU (ssRNA) [Ic_S1_P5E.1_K5.1_C5.1_H5.1_A5.1_[T5C]_[T6C]_F5.1_[T8A]_[T9C]_[A10C]_T5.1] | 556 nM
36 | UCUCUUUGUACUCUCGUCUCUU (ssRNA) [Ic_S1_P5E.1_K5.1_C5.1_H5.1_A5.1_[T5C]_[A7C]_F5.1_[T9C]_[A10G]_T5.1] | 70.5 nM
37 | UCUCUUUGUAUAUGAUCUCUU (ssRNA) [Ic_S1_P4E.1_K4.1_C4.1_H4.1_A4.1_F4.1_[T8G]_T4.1] | 15.4 nM
38 | UCUCUUUGUAUUACAUUCUCUU (ssRNA) [Ic_S1_P5E.1_K5.1_C5.1_H5.1_A5.1_F5.1_[T8C]_[T9A]_[A10T]_T5.1] | 121 nM
39 | UCUCUUUGUACAUAUUUCUCUU (ssRNA) [Ic_S1_P5E.1_K5.1_C5.1_H5.1_A5.1_[T5C]_[T6A]_[A7T]_F5.1_[T8A]_[A10T]_T5.1] | 5.5 nM
40 | UCUCUUUGUAUAAACUCUCUU (ssRNA) [Ic_S1_P4E.1_K4.1_C4.1_H4.1_A4.1_[T7A]_F4.1_[T8A]_[A9C]_T4.1] | 70 nM

Row | Binder | Kd
41 | UCUCUUUGUACAUGUGUCUCUU (ssRNA) [Ic_S1_P5E.1_K5.1_C5.1_H5.1_A5.1_[T5C]_[T6A]_[A7T]_F5.1_[T8G]_[A10G]_T5.1] | 27.2 nM
42 | UCUCUUUGUAUACCGUUCUCUU (ssRNA) [Ic_S1_P5E.1_K5.1_C5.1_H5.1_A5.1_[T6A]_[A7C]_F5.1_[T8C]_[T9G]_[A10T]_T5.1] | 334 nM
43 | UCUCUUUGUAUAUUAUCUCUU (ssRNA) [Ic_S1_P4E.1_K4.1_C4.1_H4.1_A4.1_F4.1_T4.1] | 0.576 nM
44 | UCUCUUUGUACGUCCCUCUCUU (ssRNA) [Ic_S1_P5E.1_K5.1_C5.1_H5.1_A5.1_[T5C]_[T6G]_[A7T]_F5.1_[T8C]_[T9C]_[A10C]_T5.1] | 394 nM
45 | UCUCUUUGUAACCGCCUCUCUU (ssRNA) [Ic_S1_P5E.1_K5.1_C5.1_H5.1_A5.1_[T5A]_[T6C]_[A7C]_F5.1_[T8G]_[T9C]_[A10C]_T5.1] | 2070 nM
46 | UCUCUUUGUACUAUACUCUCUU (ssRNA) [Ic_S1_P5E.1_K5.1_C5.1_H5.1_A5.1_[T5C]_F5.1_[T9A]_[A10C]_T5.1] | 2.18 nM
47 | UCUCUUUGUACUCAGCUCUCUU (ssRNA) [Ic_S1_P5E.1_K5.1_C5.1_H5.1_A5.1_[T5C]_[A7C]_F5.1_[T8A]_[T9G]_[A10C]_T5.1] | 945 nM
48 | UCUCUUUGUACAUUUCUCUU (ssRNA) [Ic_S1_P3E.1_K3.1_C3.1_H3.1_A3.1_[T5C]_F3.1_[A8T]_T3.1] | 5.42 nM
49 | UCUCUUUGUAAUCCCAUCUCUU (ssRNA) [Ic_S1_P5E.1_K5.1_C5.1_H5.1_A5.1_[T5A]_[A7C]_F5.1_[T8C]_[T9C]_T5.1] | 868 nM
50 | UCUCUUUGUAAGUUCUUCUCUU (ssRNA) [Ic_S1_P5E.1_K5.1_C5.1_H5.1_A5.1_[T5A]_[T6G]_[A7T]_F5.1_[T9C]_[A10T]_T5.1] | 388 nM
51 | UCUCUUUGUACGCAUGUCUCUU (ssRNA) [Ic_S1_P5E.1_K5.1_C5.1_H5.1_A5.1_[T5C]_[T6G]_[A7C]_F5.1_[T8A]_[A10G]_T5.1] | 581 nM
52 | UCUCUUUGUAUAUCGAUCUCUU (ssRNA) [Ic_S1_P5E.1_K5.1_C5.1_H5.1_A5.1_[T6A]_[A7T]_F5.1_[T8C]_[T9G]_T5.1] | 38.9 nM
53 | UCUCUUUGUACAGUCUUCUCUU (ssRNA) [Ic_S1_P5E.1_K5.1_C5.1_H5.1_A5.1_[T5C]_[T6A]_[A7G]_F5.1_[T9C]_[A10T]_T5.1] | 22.9 nM
54 | UCUCUUUGUAUAUGACUCUCUU (ssRNA) [Ic_S1_P5E.1_K5.1_C5.1_H5.1_A5.1_[T6A]_[A7T]_F5.1_[T8G]_[T9A]_[A10C]_T5.1] | 16.1 nM
55 | UCUCUUUGUAAAUCUCUCUU (ssRNA) [Ic_S1_P3E.1_K3.1_C3.1_H3.1_A3.1_[T5A]_F3.1_[A8C]_T3.1] | 343 nM
56 | UCUCUUUGUAUCGGUAUCUCUU (ssRNA) [Ic_S1_P5E.1_K5.1_C5.1_H5.1_A5.1_[T6C]_[A7G]_F5.1_[T8G]_T5.1] | 43.9 nM
57 | UCUCUUUGUACGGUAAUCUCUU (ssRNA) [Ic_S1_P5E.1_K5.1_C5.1_H5.1_A5.1_[T5C]_[T6G]_[A7G]_F5.1_[T9A]_T5.1] | 16.8 nM
58 | UCUCUUUGUAGCACUGUCUCUU (ssRNA) [Ic_S1_P5E.1_K5.1_C5.1_H5.1_A5.1_[T5G]_[T6C]_F5.1_[T8C]_[A10G]_T5.1] | > 2300 nM
59 | UCUCUUUGUACCGACCUCUCUU (ssRNA) [Ic_S1_P5E.1_K5.1_C5.1_H5.1_A5.1_[T5C]_[T6C]_[A7G]_F5.1_[T8A]_[T9C]_[A10C]_T5.1] | > 2300 nM

— article PMC9352680, “A comprehensive thermodynamic model for RNA binding by the Saccharomyces cerevisiae Pumilio protein PUF4”
